Results from patent publication US20230183318A1 (KOREA UNIVERSITY RESEARCH AND BUSINESS FOUNDATION, published 2023).
Changes are numbered by the printed parent chain. In names and notes the source's numbering stands.

B1: aglycosylated PD-1 variant Q10, displayed on E. coli spheroplasts (receptor)
chain: LDSPDRPWNPPTISPALLVVTEGDQATFTCSLSQTSESFVLNWYRISPSQQMDKLAAFPEDRSQPGQDTRFRVTQLPNGRDFHMSVDRARRQDSGSYLCVAISLAPKVQIKESLRAELRVTERRAEVPTAHPSPSPRPAGQFQ
notes: Single clone of the final sorting round; not shown: NlpA leader/anchor of the pMopac12-NlpA-FLAG vector; FLAG tag
B2: aglycosylated PD-1 variant Q12, displayed on E. coli spheroplasts (receptor)
chain: B1 chain with W8L, N9D, L32F, E37K, M52T, D87V, S96T, G140C
notes: as for B1
B3: aglycosylated PD-1 variant Q18, displayed on E. coli spheroplasts (receptor)
chain: B1 chain with S31G, S33P, S47G, D87V, S96T, P128R, P138S
notes: as for B1
B4: aglycosylated PD-1 variant Q33, displayed on E. coli spheroplasts (receptor)
chain: B1 chain with L32F, Q34R, M52T, D87V, R88G, R90Q, S96T
notes: as for B1
B5: aglycosylated PD-1 variant Q-IITV (F13I, N25Q, N34Q, M46I, N50Q, C69T, N92Q, G100V), displayed on E. coli spheroplasts (receptor)
chain: B1 chain with L32F, M52T, D87V, S96T, V108A
notes: pMopac12-N1pA-PD1_Q-IITV-FLAG; not shown: NlpA leader/anchor of the pMopac12-NlpA-FLAG vector; FLAG tag
B6: PD-1 variant N-IITV (F13I, M46I, C69T, G100V), displayed on E. coli spheroplasts (receptor)
chain: B1 chain with Q25N, L32F, Q34N, Q50N, M52T, D87V, Q92N, S96T, V108A
notes: also called N-IIITV; PD1_N-IITV; not shown: NlpA leader/anchor of the pMopac12-NlpA-FLAG vector; FLAG tag

The binders below were run against T1, dimeric human PD-L1 (PD-L1-Fc), Alexa-488 labelled (human, UniProt Q9NZQ7 19-238, Alexa-488 fluorescent label (sites not given)) (assay: flow cytometry of E. coli spheroplasts displaying single clones, fluorescent PD-L1 probe).
T1 construct: also called dimeric PD-L1-Fc-Alexa488 probe; dimeric PD-L1-Alexa488 probe; not shown: Fc domain of antibody IgG at the C-terminus; GS linker between PD-L1 and Fc
Method: Single colonies at the final round were incubated like Examples above to overexpress the protein and recover E. coli, respectively, and the peptidoglycan layer was removed and the spheroplasts were fluorescent-labeled, and then the binding ability to PD-L1 was analyzed by measuring the fluorescence signal values using FACSCalibur equipment.

T1 sequence (Q9NZQ7 19-238): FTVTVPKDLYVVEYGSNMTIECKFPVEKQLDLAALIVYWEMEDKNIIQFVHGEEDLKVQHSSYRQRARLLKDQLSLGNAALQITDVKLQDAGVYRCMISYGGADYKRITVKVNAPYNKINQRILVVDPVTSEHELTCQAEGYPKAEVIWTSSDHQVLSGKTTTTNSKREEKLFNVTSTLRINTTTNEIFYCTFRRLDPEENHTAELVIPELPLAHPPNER

binding result | Binder
binds | B1
binds | B2
binds | B3
binds | B4

These binders were tested against T1, dimeric human PD-L1 (PD-L1-Fc), … (assay: flow cytometry of E. coli spheroplasts displaying the variant, 50 nM dimeric PD-L1-Fc-Alexa488).
Method: In order to remove the residual medium, the cells put in the e-tube were resuspended using 1 ml of 10 mM Tris-HCl (pH 8.0) and centrifuged at 13,500 rpm for 1 minute, and then washed twice. The cells were resuspended using 1 ml of an STE [0.5 M sucrose, 10 mM Tris-HCl, 10 mM EDTA (pH 8.0)] solution and rotated at 37° C. for 30 minutes to remove extracellular membrane and then centrifuged at 13,500 rpm for 1 minute to collect E. coli and then a supernatant was removed. The centrifuged E. coli was resuspended in 1 ml of Solution A [0.5 M sucrose, 20 mM MgCl₂, 10 mM MOPS pH 6.8] and then centrifuged at 13,500 rpm for 1 minute. The centrifuged E. coli was resuspended by adding 1 ml of a solution mixed with 1 ml of Solution A and 20 μl of a 50 mg/ml lysozyme solution, and then rotated at 37° C. for 15 minutes to remove a peptidoglycan layer. After centrifugation, the supematant was removed and the centrifuged E. coli was resuspended with 1 ml of PBS, taken to 300 μl, added with 700 μl of PBS and a 50 nM dimeric PD-L1-Fc-Alexa488 probe, and rotated at room temperature to label spheroplasts with a fluorescent probe. […] The centrifuged E. coli was resuspended in 1 ml of PBS, and then binding ability to PD-L1 was analyzed using Calibur (BD Biosciences) equipment, respectively.

binding result | Binder
binds | B5
binds | B6
